Data: US20060110789

Assays:
[1] = target: T1, (5)M3+TE (module 3 of DEBS with the N-terminal linker of module 5, fused to thioesterase), Q03132
T1 chain: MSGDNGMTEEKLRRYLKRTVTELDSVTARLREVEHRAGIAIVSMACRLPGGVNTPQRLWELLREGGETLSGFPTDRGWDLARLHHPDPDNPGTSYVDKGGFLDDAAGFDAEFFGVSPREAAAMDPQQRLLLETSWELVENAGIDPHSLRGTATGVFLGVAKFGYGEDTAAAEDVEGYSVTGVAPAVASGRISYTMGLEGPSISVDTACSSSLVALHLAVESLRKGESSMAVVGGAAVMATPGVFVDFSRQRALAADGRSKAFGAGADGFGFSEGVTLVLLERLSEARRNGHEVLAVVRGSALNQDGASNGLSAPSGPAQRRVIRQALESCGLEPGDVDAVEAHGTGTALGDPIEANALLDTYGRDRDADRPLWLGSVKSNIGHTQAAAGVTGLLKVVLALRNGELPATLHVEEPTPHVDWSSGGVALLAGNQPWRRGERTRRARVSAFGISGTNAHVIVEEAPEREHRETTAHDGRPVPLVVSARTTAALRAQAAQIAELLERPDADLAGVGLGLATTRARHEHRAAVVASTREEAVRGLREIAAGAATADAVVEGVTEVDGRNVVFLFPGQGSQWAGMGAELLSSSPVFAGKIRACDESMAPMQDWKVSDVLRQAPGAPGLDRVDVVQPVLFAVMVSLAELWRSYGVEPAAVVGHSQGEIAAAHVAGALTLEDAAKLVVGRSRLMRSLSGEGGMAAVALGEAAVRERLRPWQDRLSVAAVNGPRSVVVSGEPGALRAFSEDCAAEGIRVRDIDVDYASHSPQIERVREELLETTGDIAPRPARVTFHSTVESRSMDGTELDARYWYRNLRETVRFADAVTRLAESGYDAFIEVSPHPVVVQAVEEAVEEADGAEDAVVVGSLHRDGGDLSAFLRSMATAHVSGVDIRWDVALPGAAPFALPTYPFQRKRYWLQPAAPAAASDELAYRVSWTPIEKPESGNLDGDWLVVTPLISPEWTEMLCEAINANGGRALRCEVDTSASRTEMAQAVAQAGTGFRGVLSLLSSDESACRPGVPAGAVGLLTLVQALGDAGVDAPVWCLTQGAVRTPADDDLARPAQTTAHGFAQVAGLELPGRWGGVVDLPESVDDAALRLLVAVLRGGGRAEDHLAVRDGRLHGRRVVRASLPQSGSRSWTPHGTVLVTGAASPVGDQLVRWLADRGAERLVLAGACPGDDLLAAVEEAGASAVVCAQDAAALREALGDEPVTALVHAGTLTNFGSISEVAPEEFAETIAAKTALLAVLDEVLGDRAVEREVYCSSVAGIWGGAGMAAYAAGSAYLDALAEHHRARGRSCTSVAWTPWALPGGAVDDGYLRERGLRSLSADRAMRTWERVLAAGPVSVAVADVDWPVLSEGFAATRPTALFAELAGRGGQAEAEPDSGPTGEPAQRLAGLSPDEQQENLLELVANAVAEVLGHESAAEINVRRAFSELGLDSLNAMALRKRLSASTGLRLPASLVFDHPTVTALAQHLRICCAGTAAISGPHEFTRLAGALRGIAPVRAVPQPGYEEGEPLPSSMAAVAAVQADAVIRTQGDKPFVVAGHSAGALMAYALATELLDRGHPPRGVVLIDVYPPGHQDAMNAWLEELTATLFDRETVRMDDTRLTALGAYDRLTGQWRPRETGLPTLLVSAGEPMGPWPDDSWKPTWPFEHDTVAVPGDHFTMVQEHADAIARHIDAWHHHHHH

[2] = target: T2, M3+TE (module 3 of DEBS with its own N-terminal linker, fused to thioesterase), Q03132
T2 chain: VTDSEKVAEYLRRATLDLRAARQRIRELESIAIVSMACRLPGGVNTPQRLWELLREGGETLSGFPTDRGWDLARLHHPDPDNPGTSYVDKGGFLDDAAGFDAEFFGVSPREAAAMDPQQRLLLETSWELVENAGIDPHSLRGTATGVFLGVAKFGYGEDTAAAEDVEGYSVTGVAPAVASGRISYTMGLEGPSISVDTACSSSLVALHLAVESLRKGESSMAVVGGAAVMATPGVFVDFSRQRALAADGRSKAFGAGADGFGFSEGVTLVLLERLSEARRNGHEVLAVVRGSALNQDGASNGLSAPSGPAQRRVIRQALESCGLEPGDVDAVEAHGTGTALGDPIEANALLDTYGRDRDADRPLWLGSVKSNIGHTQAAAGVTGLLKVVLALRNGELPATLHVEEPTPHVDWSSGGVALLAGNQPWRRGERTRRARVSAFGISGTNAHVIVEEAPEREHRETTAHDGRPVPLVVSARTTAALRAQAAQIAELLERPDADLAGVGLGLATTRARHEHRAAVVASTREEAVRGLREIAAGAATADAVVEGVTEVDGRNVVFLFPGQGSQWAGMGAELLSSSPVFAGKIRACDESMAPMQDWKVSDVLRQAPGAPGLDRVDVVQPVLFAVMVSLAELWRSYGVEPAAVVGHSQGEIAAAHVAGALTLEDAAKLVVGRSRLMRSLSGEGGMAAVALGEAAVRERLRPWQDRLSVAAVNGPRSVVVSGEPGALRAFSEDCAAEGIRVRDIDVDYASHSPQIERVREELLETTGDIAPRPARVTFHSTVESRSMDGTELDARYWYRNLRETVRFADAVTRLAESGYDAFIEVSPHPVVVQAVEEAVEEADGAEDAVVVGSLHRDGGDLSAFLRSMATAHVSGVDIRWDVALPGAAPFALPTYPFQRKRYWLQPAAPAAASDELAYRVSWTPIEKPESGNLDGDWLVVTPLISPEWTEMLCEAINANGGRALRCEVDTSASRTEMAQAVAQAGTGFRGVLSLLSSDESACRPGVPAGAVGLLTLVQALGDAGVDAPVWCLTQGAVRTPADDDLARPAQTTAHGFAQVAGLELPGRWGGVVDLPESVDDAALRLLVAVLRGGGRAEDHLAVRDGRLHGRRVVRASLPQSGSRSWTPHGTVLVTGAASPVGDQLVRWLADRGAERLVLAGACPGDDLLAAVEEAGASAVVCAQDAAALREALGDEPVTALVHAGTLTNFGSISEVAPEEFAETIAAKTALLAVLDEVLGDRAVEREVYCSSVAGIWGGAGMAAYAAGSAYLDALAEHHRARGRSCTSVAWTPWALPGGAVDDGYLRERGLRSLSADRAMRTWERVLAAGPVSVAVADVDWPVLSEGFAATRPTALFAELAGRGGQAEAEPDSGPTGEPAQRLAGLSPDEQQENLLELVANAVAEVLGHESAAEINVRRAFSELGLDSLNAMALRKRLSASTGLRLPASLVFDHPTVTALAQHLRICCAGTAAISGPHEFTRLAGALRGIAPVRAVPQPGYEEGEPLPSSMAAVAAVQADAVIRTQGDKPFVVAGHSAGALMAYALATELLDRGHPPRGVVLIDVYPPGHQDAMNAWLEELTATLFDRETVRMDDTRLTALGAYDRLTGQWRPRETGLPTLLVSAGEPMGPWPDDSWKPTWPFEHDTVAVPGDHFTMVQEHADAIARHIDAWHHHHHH

B1: M2 (module 2 of DEBS with its natural C-terminal linker) (protein)
chain: MSGDNGMTEEKLRRYLKRTVTELDSVTARLREVEHRAGIAIVGMACRLPGEVDSPERLWELITSGRDSAAEVPDDRGWVPDELMASDAAGTRAHGNFMAGAGDFDAAFFGISPREALAMDPQQRQALETTWEALESAGIPPETLRGSDTGVFVGMSHQGYATGRPRPEDGVDGYLLTGNTASVASGRIAYVLGLEGPALTVDTACSSSLVALHTACGSLRDGDCGLAVAGGVSVMAGPEVFTEFSRQGALSPDGRCKPFSDEADGFGLGEGSAFVVLQRLSDARREGRRVLGVVAGSAVNQDGASNGLSAPSGVAQQRVIRRAWARAGITGADVAVVEAHGTGTRLGDPVEASALLATYGKSRGSSGPVLLGSVKSNIGHAQAAAGVAGVIKVLLGLERGVVPPMLCRGERSGLIDWSSGEIELADGVREWSPAADGVRRAGVSAFGVSGTNAHVIIAEPPEPEPVPQPRRMLPATGVVPVVLSARTGAALRAQAGRLADHLAAHPGIAPADVSWTMARARQHFEERAAVLAADTAEAVHRLRAVADGAVVPGVVTGSASDGGSVFVFPGQGAQWEGMARELLPVPVFAESIAECDAVLSEVAGFSVSEVLEPRPDAPSLERVDVVQPVLFAVMVSLARLWRACGAVPSAVIGHSQGEIAAAVVAGALSLEDGMRVVARRSRAVRAVAGRGSMLSVRGGRSDVEKLLADDSWTGRLEVAAVNGPDAVVVAGDAQAAREFLEYCEGVGIRARAIPVDYASHTAHVEPVRDELVQALAGITPRRAEVPFFSTLTGDFLDGTELDAGYWYRNLRHPVEFHSAVQALTDQGYATFIEVSPHPVLASSVQETLDDAESDAAVLGTLERDAGDADRFLTALADAHTRGVAVDWEAVLGRAGLVDLPGYPFQGKRFWLLPDRTTPRDELDGWFYRVDWTEVPRSEPAALRGRWLVVVPEGHEEDGWTVEVRSALAEAGAEPEVTRGVGGLVGDCAGVVSLLALEGDGAVQTLVLVRELDAEGIDAPLWTVTFGAVDAGSPVARPDQAKLWGLGQVASLERGPRWTGLVDLPHMPDPELRGRLTAVLAGSEDQVAVRADAVRARRLSPAHVTATSEYAVPGGTILVTGGTAGLGAEVARWLAGRGAEHLALVSRRGPDTEGVGDLTAELTRLGARVSVHACDVSSREPVRELVHGLIEQGDVVRGVVHAAGLPQQVAINDMDEAAFDEVVAAKAGGAVHLDELCSDAELFLLFSSGAGVWGSARQGAYAAGNAFLDAFARHRRGRGLPATSVAWGLWAAGGMTGDEEAVSFLRERGVRAMPVPRALAALDRVLASGETAVVVTDVDWPAFAESYTAARPRPLLDRIVTTAPSERAGEPETESLRDRLAGLPRAERTAELVRLVRTSTATVLGHDDPKAVRATTPFKELGFDSLAAVRLRNLLNAATGLRLPSTLVFDHPNASAVAGFLDGTEVRGEAPSALAGLDALEGALPEVPATEREELVQRLERMLAALRPVAQAADASGTGANPSGDDLGEAGVDELLEALGRELDGD
highest rate constant of tetraketide lactone 2 formation (mismatched linkers) [1]: in the range of 0.02-0.03 min^-1 | maximum rate constant (kcat) of tetraketide lactone 2 formation [2]: 0.0045 ± 0.00017 s⁻¹
